# In paper PMC12963305:
# Target: EmER1, EGF receptor of Echinococcus multilocularis, extracellular region in the MALAR-Y2H receptor vector (Echinococcus multilocularis)
substance,measurement,value
"human EGF, extracellular domain in the MALAR-Y2H ligand vector (from UniProt P01133 23-1032)","germinal vesicle breakdown (GVBD) of Xenopus oocytes expressing EmER1 from cRNA, stimulated by 50 nM recombinant human EGF, counted after 15 h",30%
